Literature values, collected in article PMC10342495.

Target: IL-18 (Homo sapiens) (UniProt Q14116)
Sequence (Q14116 37-193): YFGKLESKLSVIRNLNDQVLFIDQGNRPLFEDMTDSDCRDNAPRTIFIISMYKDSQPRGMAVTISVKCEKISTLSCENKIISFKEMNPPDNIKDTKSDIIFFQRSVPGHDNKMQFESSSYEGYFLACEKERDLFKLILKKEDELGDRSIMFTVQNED

Chain of IL-18BP (O95998 31-194): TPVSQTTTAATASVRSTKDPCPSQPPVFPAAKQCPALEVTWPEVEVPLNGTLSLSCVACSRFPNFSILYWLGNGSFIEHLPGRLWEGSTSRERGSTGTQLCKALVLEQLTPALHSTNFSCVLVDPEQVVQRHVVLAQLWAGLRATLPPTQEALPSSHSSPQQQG

For IL-18BP (from UniProt O95998), the Kd is listed as 0.4 nM.
